In the supplement of paper PMC10567573:
± gives the standard deviation.

Assay: protein stability index of a GFP-peptide fusion (GPS, HEK-293T) (PSI 1-6); higher = more stable
[1] = treatment: DMSO, c terminus: a fixed tail appended
[2] = treatment: MLN4924 1 uM, 8 h, c terminus: a fixed tail appended
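Further: 24-mer peptide tiles fused after GFP, lentivirally expressed, FACS-sorted into six equal bins by GFP/DsRed ratio, decoded by Illumina sequencing, PSI is the read-weighted mean bin number.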

Sequence	protein stability index [1]	protein stability index [2]	protein stability index (treatment: DMSO, c terminus: native)	protein stability index (treatment: MLN4924 1 uM, 8 h, c terminus: native)
CLRVGMLKEGVRLDRVRGGRQKYK [ESRRA]	3.12 ± 0.24	3.42 ± 0.46		
CNSHMPYGYAAQARARERERLAHS [KCNA4]	3.1 ± 0.23	3.13 ± 0.31		
CPGLRLPGSLAGRRAGPAIWAQGW [AUH]	2.83 ± 0.15	1.82 ± 0.35		
CPVEYNNDTNSFTVDCEPSDLFRL [CDS2]	3.94 ± 0.21	4.03 ± 0.17		
CQILELLNAELEEKMMQEAEKLKA [CCDC89]	3.76 ± 0.26	3.65 ± 0.17		
CSEDWVGYQRKCYFISTVKRSWTS [CD69]	2.36 ± 0.33	2.65 ± 0.49		
CSHSFLLAVMGYDRYIAICNPLRY [OR10K2]	2.87 ± 0.52	2.88 ± 0.58		
CSKSFRQRAGLIMHQVTHFRGLI [ZNF449]			2.92 ± 0.45	3.08 ± 0.35
CTEILTEKKDTITNDSLSLKPSWF [MIA2]	3.23 ± 0.28	3.42 ± 0.42		
CTKTCGVGVRMRDVKCYQGTDIVR [ADAMTSL2]	3.27 ± 0.4	2.65 ± 0.33		
CTRFTDEYQLFEELGKGAFSVVRR [CAMK2D]	2.81 ± 0.31	2.84 ± 0.39		
CVDVVFYNPDLKKVVEAHKIVLCA [RHOBTB3]	3.01 ± 1.1	2.74 ± 0.81		
CVKLCTGHEYAAKIINTKKLSARD [CAMK2B]	3.14 ± 0.18	3.18 ± 0.28		
DALRNLKCGSGARGGDGEVASAPL [TRADD]	4.15 ± 0.38	4.05 ± 0.3		
DAVGMLGIEEVTYENCLQALADVE [NLN]	4.25 ± 0.27	3.9 ± 0.34		
DAVTIPCGHTFCRLCLPALSQMGA [TRIM15]	2.47 ± 0.35	2.17 ± 0.27		
DCGPSRADRCSPKEDQAWDGASQD [FBXO34]	5.37 ± 0.24	5.25 ± 0.28		
DDFHTNDVCSFPNALVTKLLLDCG [FEM1B]	2.55 ± 0.26	2.44 ± 0.2		

Sequence	protein stability index [1]	protein stability index [2]	protein stability index (treatment: DMSO, c terminus: native)	protein stability index (treatment: MLN4924 1 uM, 8 h, c terminus: native)
DEAKAPHWTSAPLTEASAHSHPPE [MAP2]	5.39 ± 0.16	5.37 ± 0.075		
DEKINIYCLTCEVPTCSMCKVFGI [TRIM63]	2.43 ± 0.14	2.45 ± 0.32		
DEMVIVKDIDMFSMCEHHLVPFVG [GCH1]	2.76 ± 0.22	2.64 ± 0.37		
DEPVCGRPLGIRAGPNGTLFVADA [APMAP]	3.83 ± 0.22	4.03 ± 0.27		
DETHFGKMGSYYINRTFFFDVHPP [POMT2]	2.45 ± 0.21	2.23 ± 0.33		
DFPEDGLKIFTEDLPEVESLPRDR [VPS39]	5.31 ± 0.31	5.39 ± 0.068		
DFQGRILSVDPEEEREEGPPRIPQ [RHOBTB1]	5.29 ± 0.31	5.22 ± 0.22		
DFSGLTLDGALRTFLKAFPLMGET [PSD2]	1.91 ± 0.24	2.05 ± 0.34		
DGTSQSTGGSADLFGGFADFGSAA [CLINT1]	4.71 ± 0.25	4.46 ± 0.27		
DHQDSDEFCRNTLCAPEVISLINT [FAF2]	3.72 ± 0.37	3.67 ± 0.38		
DILMEFGHLFPPPTPIFAGGANDR [WSB1]	2.41 ± 0.46	2.51 ± 0.45		
DILPRWAIIGWLLTTCTSNVAASN [INTS3]	3.24 ± 0.47	3.08 ± 0.51		
DKLGELSDKIGSTIDDTISKFRRK [CLINT1]	3.32 ± 0.58	3.4 ± 0.39		
DLAEFAKKQPWWRKLFGQESGPSA [FUNDC2]	2.65 ± 0.13	2.58 ± 0.17		
DLCSDVNVCSLLAQTPLHVAAETG [RIPK4]	3.46 ± 0.4	3.21 ± 0.47		
DLFGWSQLIYNHITTRVNSEQEHF [ADD1]	2.72 ± 0.51	2.55 ± 0.41		
DLIDNLKEAQYIRTERVEQAFRAI [PCMTD1]	2.29 ± 0.17	2.27 ± 0.14		
DNARLAADDFRTKYEHELALRQTV [KRT16]	4.01 ± 0.17	4.11 ± 0.26		
